Starred links: 1 amine or outer side, 2 acyl side, 3 side chain; linkers in the order of their positions; H or OH if unused. Positions of bridges follow the written chain, without caps; N, C: chain ends. Non-standard residues stand in square brackets, D forms with d. Groups on a side chain read outwards from the residue. *: point of attachment. X1 = K(γGlu-G-γGlu-17-carboxy-heptadecanoyl), O=C(O)CCCCCCCCCCCCCCCCC(=O)N[C@@H](CCC(=O)NCC(=O)N[C@@H](CCC(=O)NCCCC[C@H](N[*:1])C(=O)[*:2])C(=O)O)C(=O)O; Trp(1-Me) = Cn1cc(C[C@H](N)C(=O)O)c2ccccc21; C18 diacid = O=C(O)CCCCCCCCCCCCCCCCC(=O)*; γGlu = O=C(O)[C@H](CCC(=O)[*:2])N[*:1]; AEEA = NCCOCCOCC(=O)O; Sar = CNCC(=O)O
B1: Compound 118 (peptide)
peptide: Ac-SEYCI[Trp(1-Me)]QDWGEHRC[Sar]EGAK([AEEA-γGlu-AEEA-Gly-γGlu-C18 diacid])-NH2
modifications: disulfide 4-14
SMILES: CC[C@H](C)[C@@H]1NC(=O)[C@@H](NC(=O)[C@H](Cc2ccc(O)cc2)NC(=O)[C@H](CCC(=O)O)NC(=O)[C@H](CO)NC(C)=O)CSSC[C@@H](C(=O)N(C)CC(=O)N[C@@H](CCC(=O)O)C(=O)NCC(=O)N[C@@H](C)C(=O)N[C@@H](CCCCNC(=O)COCCOCCNC(=O)CC[C@H](NC(=O)COCCOCCNC(=O)CNC(=O)CC[C@H](NC(=O)CCCCCCCCCCCCCCCCC(=O)O)C(=O)O)C(=O)O)C(N)=O)NC(=O)[C@H](CCCNC(=N)N)NC(=O)[C@H](Cc2c[nH]cn2)NC(=O)[C@H](CCC(=O)O)NC(=O)CNC(=O)[C@H](Cc2c[nH]c3ccccc23)NC(=O)[C@H](CC(=O)O)NC(=O)[C@H](CCC(N)=O)NC(=O)[C@H](Cc2cn(C)c3ccccc23)NC1=O
B2: Compound 122 (peptide)
peptide: Ac-SEYCI[Trp(1-Me)]QEWGEHRC[Sar]EGAK([AEEA-γGlu-AEEA-Gly-γGlu-C18 diacid])-NH2
modifications: disulfide 4-14
SMILES: CC[C@H](C)[C@@H]1NC(=O)[C@@H](NC(=O)[C@H](Cc2ccc(O)cc2)NC(=O)[C@H](CCC(=O)O)NC(=O)[C@H](CO)NC(C)=O)CSSC[C@@H](C(=O)N(C)CC(=O)N[C@@H](CCC(=O)O)C(=O)NCC(=O)N[C@@H](C)C(=O)N[C@@H](CCCCNC(=O)COCCOCCNC(=O)CC[C@H](NC(=O)COCCOCCNC(=O)CNC(=O)CC[C@H](NC(=O)CCCCCCCCCCCCCCCCC(=O)O)C(=O)O)C(=O)O)C(N)=O)NC(=O)[C@H](CCCNC(=N)N)NC(=O)[C@H](Cc2c[nH]cn2)NC(=O)[C@H](CCC(=O)O)NC(=O)CNC(=O)[C@H](Cc2c[nH]c3ccccc23)NC(=O)[C@H](CCC(=O)O)NC(=O)[C@H](CCC(N)=O)NC(=O)[C@H](Cc2cn(C)c3ccccc23)NC1=O
B3: Compound 120 (peptide)
peptide: Ac-SEFCI[Trp(1-Me)]QEWGEHRC[Sar]EGAK([AEEA-γGlu-AEEA-Gly-γGlu-C18 diacid])-NH2
modifications: disulfide 4-14
SMILES: CC[C@H](C)[C@@H]1NC(=O)[C@@H](NC(=O)[C@H](Cc2ccccc2)NC(=O)[C@H](CCC(=O)O)NC(=O)[C@H](CO)NC(C)=O)CSSC[C@@H](C(=O)N(C)CC(=O)N[C@@H](CCC(=O)O)C(=O)NCC(=O)N[C@@H](C)C(=O)N[C@@H](CCCCNC(=O)COCCOCCNC(=O)CC[C@H](NC(=O)COCCOCCNC(=O)CNC(=O)CC[C@H](NC(=O)CCCCCCCCCCCCCCCCC(=O)O)C(=O)O)C(=O)O)C(N)=O)NC(=O)[C@H](CCCNC(=N)N)NC(=O)[C@H](Cc2c[nH]cn2)NC(=O)[C@H](CCC(=O)O)NC(=O)CNC(=O)[C@H](Cc2c[nH]c3ccccc23)NC(=O)[C@H](CCC(=O)O)NC(=O)[C@H](CCC(N)=O)NC(=O)[C@H](Cc2cn(C)c3ccccc23)NC1=O
B4: Compound 119 (peptide)
peptide: Ac-SEFCI[Trp(1-Me)]QDWGEHRC[Sar]EGAK([AEEA-γGlu-AEEA-Gly-γGlu-C18 diacid])-NH2
modifications: disulfide 4-14
SMILES: CC[C@H](C)[C@@H]1NC(=O)[C@@H](NC(=O)[C@H](Cc2ccccc2)NC(=O)[C@H](CCC(=O)O)NC(=O)[C@H](CO)NC(C)=O)CSSC[C@@H](C(=O)N(C)CC(=O)N[C@@H](CCC(=O)O)C(=O)NCC(=O)N[C@@H](C)C(=O)N[C@@H](CCCCNC(=O)COCCOCCNC(=O)CC[C@H](NC(=O)COCCOCCNC(=O)CNC(=O)CC[C@H](NC(=O)CCCCCCCCCCCCCCCCC(=O)O)C(=O)O)C(=O)O)C(N)=O)NC(=O)[C@H](CCCNC(=N)N)NC(=O)[C@H](Cc2c[nH]cn2)NC(=O)[C@H](CCC(=O)O)NC(=O)CNC(=O)[C@H](Cc2c[nH]c3ccccc23)NC(=O)[C@H](CC(=O)O)NC(=O)[C@H](CCC(N)=O)NC(=O)[C@H](Cc2cn(C)c3ccccc23)NC1=O
notes: also called Compound No 119
B5: Compound 126 (peptide)
peptide: Ac-SEFCI[Trp(1-Me)]QDWGEHRCTEGE-{AEEA-AEEA-X1-NH2}
modifications: disulfide 4-14
SMILES: CC[C@H](C)[C@@H]1NC(=O)[C@@H](NC(=O)[C@H](Cc2ccccc2)NC(=O)[C@H](CCC(=O)O)NC(=O)[C@H](CO)NC(C)=O)CSSC[C@@H](C(=O)N[C@H](C(=O)N[C@@H](CCC(=O)O)C(=O)NCC(=O)N[C@@H](CCC(=O)O)C(=O)NCCOCCOCC(=O)NCCOCCOCC(=O)N[C@@H](CCCCNC(=O)CC[C@H](NC(=O)CNC(=O)CC[C@H](NC(=O)CCCCCCCCCCCCCCCCC(=O)O)C(=O)O)C(=O)O)C(N)=O)[C@@H](C)O)NC(=O)[C@H](CCCNC(=N)N)NC(=O)[C@H](Cc2c[nH]cn2)NC(=O)[C@H](CCC(=O)O)NC(=O)CNC(=O)[C@H](Cc2c[nH]c3ccccc23)NC(=O)[C@H](CC(=O)O)NC(=O)[C@H](CCC(N)=O)NC(=O)[C@H](Cc2cn(C)c3ccccc23)NC1=O
B6: Compound 121 (peptide)
peptide: Ac-SEYCI[Trp(1-Me)]QEW[Sar]EHRC[Sar]EK[γGlu]AK([AEEA-γGlu-AEEA-Gly-γGlu-C18 diacid])-NH2
modifications: disulfide 4-14
SMILES: CC[C@H](C)[C@@H]1NC(=O)[C@@H](NC(=O)[C@H](Cc2ccc(O)cc2)NC(=O)[C@H](CCC(=O)O)NC(=O)[C@H](CO)NC(C)=O)CSSC[C@@H](C(=O)N(C)CC(=O)N[C@@H](CCC(=O)O)C(=O)N[C@@H](CCCCN)C(=O)N[C@@H](CCC(=O)N[C@@H](C)C(=O)N[C@@H](CCCCNC(=O)COCCOCCNC(=O)CC[C@H](NC(=O)COCCOCCNC(=O)CNC(=O)CC[C@H](NC(=O)CCCCCCCCCCCCCCCCC(=O)O)C(=O)O)C(=O)O)C(N)=O)C(=O)O)NC(=O)[C@H](CCCNC(=N)N)NC(=O)[C@H](Cc2c[nH]cn2)NC(=O)[C@H](CCC(=O)O)NC(=O)CN(C)C(=O)[C@H](Cc2c[nH]c3ccccc23)NC(=O)[C@H](CCC(=O)O)NC(=O)[C@H](CCC(N)=O)NC(=O)[C@H](Cc2cn(C)c3ccccc23)NC1=O

Legend:
[1] = biological target: T1, Human C3 (Complement tech cat #A113c) (human, UniProt P01024 23-1663); assay: cell-based or functional assay
[2] = biological target: T1, Human C3 (Complement tech cat #A113c); assay: SPR (Biacore T200), human C3 immobilised, peptide injected, 1:1 fit
Description: Surface plasmon resonance (SPR) was used to characterize peptides with respect to their binding affinity (Kd) for C3. Human C3 (Complement tech cat #A113c) was immobilised on individual flow cells of CM5 sensor chips (GE Healthcare) using standard amine coupling to a density of approximately 3000 resonance units (RU) in a buffer consisting of 10 mM phosphate pH 7.4, 150 mM NaCl, 0.05% Tween20.
For interaction experiments a multi-cycle experiment approach was used and performed using a BiacoreT200™ instrument (GE Healthcare) at 25° C. Peptides were injected in increasing concentration series (6-8 different concentrations) for 60-120 sat a flow rate of 30 µL/min in a buffer consisting of 10 mM Tris buffer at pH 7.4, with 150 mM NaCl and 0.05% Tween20. This was followed by a dissociation period for up to 10 min. The C3 surface was regenerated between runs by a 45 s injection of 3 M MgCl_2.

T1 sequence (P01024 23-1663 limits assumed): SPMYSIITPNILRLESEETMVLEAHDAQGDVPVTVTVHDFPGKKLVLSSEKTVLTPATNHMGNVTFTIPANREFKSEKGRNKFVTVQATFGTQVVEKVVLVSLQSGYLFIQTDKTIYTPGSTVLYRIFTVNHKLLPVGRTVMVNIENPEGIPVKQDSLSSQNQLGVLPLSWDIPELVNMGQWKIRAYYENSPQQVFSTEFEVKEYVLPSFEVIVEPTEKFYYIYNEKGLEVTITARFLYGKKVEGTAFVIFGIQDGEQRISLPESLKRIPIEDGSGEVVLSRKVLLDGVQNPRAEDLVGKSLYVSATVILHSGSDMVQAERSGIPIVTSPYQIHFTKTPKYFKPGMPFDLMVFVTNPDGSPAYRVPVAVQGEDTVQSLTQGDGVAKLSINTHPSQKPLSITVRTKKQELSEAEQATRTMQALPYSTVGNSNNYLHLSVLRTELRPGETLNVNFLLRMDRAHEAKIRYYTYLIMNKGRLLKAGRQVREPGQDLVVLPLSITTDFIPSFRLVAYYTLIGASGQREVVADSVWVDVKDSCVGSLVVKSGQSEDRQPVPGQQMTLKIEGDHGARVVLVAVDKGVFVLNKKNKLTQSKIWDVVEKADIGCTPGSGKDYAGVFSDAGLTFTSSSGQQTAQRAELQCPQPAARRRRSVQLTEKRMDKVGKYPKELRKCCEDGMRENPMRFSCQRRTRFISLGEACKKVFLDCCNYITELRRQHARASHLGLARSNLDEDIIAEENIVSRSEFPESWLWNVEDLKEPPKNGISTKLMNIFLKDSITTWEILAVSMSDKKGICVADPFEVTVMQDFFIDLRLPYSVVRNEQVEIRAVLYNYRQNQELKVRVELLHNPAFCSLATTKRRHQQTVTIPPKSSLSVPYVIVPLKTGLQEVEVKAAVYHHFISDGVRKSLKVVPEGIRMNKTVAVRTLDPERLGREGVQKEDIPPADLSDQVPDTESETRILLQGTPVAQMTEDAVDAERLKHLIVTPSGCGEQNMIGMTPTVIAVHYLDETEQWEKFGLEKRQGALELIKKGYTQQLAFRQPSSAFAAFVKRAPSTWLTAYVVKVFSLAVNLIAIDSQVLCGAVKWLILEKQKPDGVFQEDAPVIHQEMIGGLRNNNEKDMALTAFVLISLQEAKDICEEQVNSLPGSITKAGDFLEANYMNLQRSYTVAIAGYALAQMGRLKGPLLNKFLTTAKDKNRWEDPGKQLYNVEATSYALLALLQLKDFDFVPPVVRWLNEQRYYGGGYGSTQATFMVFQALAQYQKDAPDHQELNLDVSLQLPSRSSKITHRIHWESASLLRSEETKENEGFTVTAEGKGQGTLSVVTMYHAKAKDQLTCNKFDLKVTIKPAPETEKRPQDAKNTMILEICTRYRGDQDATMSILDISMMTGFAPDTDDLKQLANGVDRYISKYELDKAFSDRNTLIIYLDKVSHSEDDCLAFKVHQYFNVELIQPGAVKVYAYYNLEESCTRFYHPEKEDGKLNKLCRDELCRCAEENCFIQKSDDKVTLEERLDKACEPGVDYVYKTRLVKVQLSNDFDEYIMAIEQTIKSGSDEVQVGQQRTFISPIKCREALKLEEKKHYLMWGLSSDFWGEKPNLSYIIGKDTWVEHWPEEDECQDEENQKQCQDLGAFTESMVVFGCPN

| Binder | inhibition of hemolysis IC50 [1] [nM] | Kd [2] [nM] |
| --- | --- | --- |
| B1 | < 100 | 11 |
| B2 | < 500 | 63 |
| B3 | < 250 | 28 |
| B4 | < 100 | 9.8 |
| B5 | < 100 | 5.2 |
| B6 | < 250 | 30 |
| Ac-SEFCI[Trp(1-Me)]QDWGEHRC[Sar]EGE-{AEEA-AEEA-K(γGlu-Gly-γGlu-17-carboxy-heptadecanoyl)-NH2} (disulfide 4-14) [Compound 123] | < 100 | 11 |
| Ac-SEYCI[Trp(1-Me)]QDWGEHRC[Sar]EGE-{AEEA-AEEA-K(γGlu-Gly-γGlu-17-carboxy-heptadecanoyl)-NH2} (disulfide 4-14) [Compound 117] | < 250 | 24 |
| Ac-SEYCI[Trp(1-Me)]QEWGEHRC[Sar]EGE-{AEEA-AEEA-K(γGlu-Gly-γGlu-17-carboxy-heptadecanoyl)-NH2} (disulfide 4-14) [Compound 125] | < 500 | 71 |
| Ac-SEFCI[Trp(1-Me)]QEWGEHRC[Sar]EGE-{AEEA-AEEA-K(γGlu-Gly-γGlu-17-carboxy-heptadecanoyl)-NH2} (disulfide 4-14) [Compound 124] | < 100 | 31 |

Source: patent US11965039B2, “Compstatin analogues and their medical uses” (priority 2018, dated 2024)
